Patent publication US20220339279A1, “RECOMBINANT PROTEINS, COMPOSITIONS, VECTORS, KITS, AND METHODS FOR […], AND TESTING FOR EXPOSURE TO, SEVERE ACUTE RESPIRATORY SYNDROME CORONAVIRUS 2” (Board of Regents of the University of Nebraska, priority 2021, published 2022)

Columns and labels:
[1] = target: hACE2 on human bronchial epithelial Calu-3 cells (human) (UniProt Q9BYF1)
[2] = target: recombinant hACE2-AviTag protein from 293T cells (Acro Biosystems) (human) (UniProt Q9BYF1); experiment: SPR, hACE2-AviTag captured on chip, spike construct as analyte

S-Ecto-eGFP (other; other documents disagree on this pair)
fold median GFP fluorescence intensity (MFI) over GFP-His tag control [1]: 2.6 fold
Kd [2]: 55.1 nM
